Test: yeast display, Sf9 membrane polyspecificity reagent, FACS + sequencing; frameworks hold sequencing errors
How it was run: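 Using colony PCR, genes from sorted yeast display clones were amplified, then sequenced on MiSeq at 2 × 250 and filtered by CDR length. The clones had been stained with 10% biotinylated, detergent-solubilized Sf9 membrane reagent for 1 hour at 4 °C and sorted by FACS into low and high (top ~1%) gates on anti-HA and streptavidin fluorescence. Polyreactivity labels come from the gate of origin.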

Sequence | polyreactivity (PSR sort gate)
QVQLVESGGGLVQAGGSLRLSCAASGYIFTDYDMGWYRPAPGKEREFVAAISSSGGSTYYADSVKGRFTISRDNAKNTVYLQMNRLKPEDTAVYYCAARRRYGRYRGAYDYWGQGTRVTVSS | high polyreactivity
QVQLVESGGGLVQAGGSLRLSCAASGSIFGYYAMGWYRQAPGKERELVAAISRGGRTNYADSVKGRFTISRDNAKNTVYLQMNSLKPEDTAVYYCAAESYRAYKYDYWGQGTQVTVSS | low polyreactivity
QVQLVESGGGLVQAGGSLRVSCAASGSIFYGNAMGWYRQAPGKARELVAAISNVGRTDYADSVKGRFTISRDNAKPTVYLQMNSLKPEDTADYSCAAGVYSGSNRYYAPRSWFGYYYWGQGTQVTVSS | low polyreactivity
QVQLVESGGGLVQAGGSLRLSCAASGSIFYDNAMGWYRQAPGKERELVASIRYSGVRTYYADSVKGRFTISRDNAKNTVYLQMNSLKPEDTAVYYCAADVYRQFYPFKSDYWGQGTQVTVSS | high polyreactivity
QVQLVESGGGLVQAGASLRLSCAASGSTFDQYVMGWYRQAPCKERELVAAISRRGGSTYYADSVKGRFTISRDNEKNTVYLQMNSLQPEDTAVYYCAAPSYYRYDYWGQGTQVTVSS | high polyreactivity
QVQLVESGGVLVQAGGSLRLSCAASGSTFLGYAMGWYRQAPGKERELVAAISSGGSTNYADSVKGRFTLSRDNAKNTVYLQMNSLKPDDTAVYYCGARTRRFRYYYWGQGPQVTVSS | high polyreactivity
QVQLVESGGGLVQAGGSLRLSCAASGSTFVIYALGWYRQAPGKERELVAALSWSGGRTNYADSVKGRFTISRDNAKNTVYLQLNSLKPEDTAVYYCAAVTGVPYPHGRYKYGYWGQGTQVTVSS | high polyreactivity
QVQIVESGGGLVQAGGSLRLSCASSGRIFHRYAMGWYRQAPGKERELVAAISYSTARTYYADSVKGRFTISRDNAKNTVYLQMNSLKPEDTAVYYCAAKDERRSFGMGYWGQGTQVTVSS | high polyreactivity
QVQLVESGGGLVQAGGSLRLSCAASGSTFRYNVMGWYRQAPGKERELVAAISSGGSTYYADSVKGRFTISRDNAKNTVYLQMNSLKPEDTAVYYCAAPRYLFFVGLGMDYWGQGTQVTVSS | high polyreactivity
QVQLVESGGGLVQAGGSLRLICAASGSILSTYAMGWYREAPGKERELVADISGRVGSTYYADSVKGRFTISRDNAKNTDYLQMNSLKPEDTAVYYCAAALDYWPGYEYYYWGQGTQVTVSS | low polyreactivity
QVQLVESGGGLDQAGGSLRLSCAASGRTFIAYARGWYRQAPGKERELVAAITSSGGSTNYADSVKGRFTISRDNAKNTVYLQMNSLKPEDTAVYYSATDIYECPYFYYSYYYWGQGTQVTVSS | low polyreactivity
QVQLVESGGGLVQAGGSLRLSCAASGSIFHYYAMGWYRQAPGKERELVADITSGGSTNYADSVKGRFTISRDNAKNTVYVQMNSLKQEDTAVYYCNASFQSWLVRVPGDYWGQGTQVTVSS | low polyreactivity
QVQLVESGGGLVQAGGSLRLSCAASGSTISRYTMGWYPQAPGKERELVAAIRRSGSSTYYADSVKGRYTISRDNAKYTVYLQMNSLKREDTAVYYCAVGRYRYGYWGQGTQVTVSS | high polyreactivity
QVQLVESGGGLVQAGGSLRLSCAASGFIFVKYAMGWYIQAPGKERELVAAITTSGTGTFYADSVKGRFTISRDNAKYTVYLQMNRLKPEDTAVYYCNALGHPGDDWGQGTQVTVSS | low polyreactivity
QVQLVESGGGLVQAGGSLRLSCAASGRTFGWYAMGWYRQAPGKERELVASITQRGGRTYYADSVKGRFTISRDNAKNTVYLQMNSLKPEDTAVYYCAAKTSPGMYYWGQGTQVTVSS | high polyreactivity
QVQLVESGGGLVQAGGSLRLSCAASGSIFKRNAMGWYRQAPGKERELVASISWSGTRTYYADSVKGRFTISRDKAKNTVYFQMNSLKPEDTAVYYCARRIYGGHPCQSTQGDFYYWGQGTQVTVSS | high polyreactivity
QVQLVESGGGLVQAGGSLRLSCAASGSTFIRNTMGWYRQAPGKERELLAAISRSGVRTYYADSVKGRFTISRDNAKNTVYLQINSLKPEDTAVSYCAAVSSLSYSFPYDYWGQGTQVTVST | high polyreactivity
QVQLVESGGGLVQAGGSLRLSCAASGIIFYKYAMGWYRQAPGKERELVAAITSGGGRTYYADSVKGRFTISRDNAKNTVYLQMNSLKPEDTAVYYCAATRPATYAAYDYWGQGTQVTVSS | high polyreactivity
QVQLVESGGGLVQAGGSLRLSCAASGRTFFKYVMGWYRQAPGKERELVAAISYRSGSTYYADSVKGRFTISRDNAKNTVYLQMNSLKPEDTAVYYCAKEPPPVKGDYWGQGTQVTVSS | low polyreactivity
QVQLVESGGGLVQAGGSLRLSCAASGFTFLYYDMGWYRQAPGKERELVAAITSSGTSTYYADSVKGRFTISRDNAKNTVYLQMNSLKPEDTAVYYCAVLYTYAGRHRYGYWGQGTQVTVSS | high polyreactivity
QVQLVESGGGLVQAGGSLRLSCAASGITFAYYAMGWYRQAPGKERELVAVITSGGRTNYADSVKGRFTISRDNAKNTVYLQMNSLKPEDTAVYYCAAYRSSKTLRLGYYYWGQGTQVTVSS | high polyreactivity
